This is an account of results in patent publication US20260176358A1 (JIANGSU HENGRUI PHARMACEUTICALS, published 2026).

The target in assay [1] is hPDL1 (human, UniProt Q9NZQ7 19-238). The assay can be described thus: ELISA of Test Example 4 of WO2021139758. In general terms: An ELISA detects its analyte on a solid surface through an enzyme-linked reagent.
For assay [2], the target named is hCTLA4 (human, UniProt P16410 36-161). The assay can be described thus: ELISA of Test Example 4 of WO2021139758.
hCTLA4, sequence (P16410 36-161 limits assumed): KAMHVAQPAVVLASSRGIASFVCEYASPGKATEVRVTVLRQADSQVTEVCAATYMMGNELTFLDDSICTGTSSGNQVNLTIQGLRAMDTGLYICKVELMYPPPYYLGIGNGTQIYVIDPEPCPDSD
For assay [3], the target named is CGRP. The experiment in a line: cell-based or functional assay.
Assay [4] addresses T1, rat CGRP (rat, UniProt P01256 83-119).
T1 peptide (looked up): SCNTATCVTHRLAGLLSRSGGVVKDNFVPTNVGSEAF
The experiment in a line: ELISA, coated CGRP. The protocol:
(§1) In this test example, the abilities of the chimeric antibodies and humanized antibodies of C1 #, C9 #, C21 #, and C28 #to bind to human CGRP and rat CGRP were assessed using ELISAs. Plates were coated with […] human CGRP and rat CGRP, respectively, and blocked, and the antibodies, serially diluted, were then added. The plates were incubated for 1 h and washed, and a horseradish peroxidase-labeled anti-human Fc secondary antibody was then added. After incubation, color development was performed. […] The plates were incubated for 1 h and washed, and the antibodies, serially diluted, were then added. The plates were incubated for 1 h and washed, and a horseradish peroxidase-labeled streptavidin secondary antibody was then added. After incubation, color development was performed.

In assay [5] the target is T2, human CGRP (human, UniProt P06881 83-119).
T2 peptide (looked up): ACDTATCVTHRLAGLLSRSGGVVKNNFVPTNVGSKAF
The assay can be described thus: ELISA, coated CGRP. As for the experimental part: as §1

hPDL1, sequence (Q9NZQ7 19-238 limits assumed): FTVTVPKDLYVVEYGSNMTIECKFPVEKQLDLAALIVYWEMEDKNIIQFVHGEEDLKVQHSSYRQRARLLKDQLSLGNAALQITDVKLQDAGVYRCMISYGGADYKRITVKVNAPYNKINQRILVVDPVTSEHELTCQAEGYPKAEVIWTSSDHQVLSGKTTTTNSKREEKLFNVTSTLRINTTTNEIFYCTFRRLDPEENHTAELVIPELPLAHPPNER

B1: PL-1 (bispecific antibody)
chain 1: not shown
chain 2: DIVLTQSPASLAVSPGQRATITCRASESVSIHGTHLMHWYQQKPGQPPKLLIYAASKLESGVPARFSGSGSGTDFTLTINPVEAEDTANYYCQQSFEDPLTFGQGTKLEIKGGGGSGIPPKIECLPIDISIDEGKVLTVASAFTGEPTPEVTWSTGGRKIHSQEQGRFHIENTDDLTTLIIKDVQKQDGGLYTLTLRNEFGSDSATVNIHIRSI
chain 3: not shown
chain 4: not shown
A word on the EC50: it is the concentration at which the effect is half-maximal. A lower EC50 goes with a more potent agent. Consider B1, for which the EC50 in assay [1] came out at 1.6 nM; in assay [2], 16.5 nM.

B2: PL-3 (bispecific antibody)
chain 1: not shown
chain 2: DIVLTQSPASLAVSPGQRATITCRASESVSIHGTHLMHWYQQKPGQPPKLLIYAASKLESGVPARFSGSGSGTDFTLTINPVEAEDTANYYCQQSFEDPLTFGQGTKLEIKGGGGSGIPPKIECLPIDISIDEGKCLTVASAFTGEPTPEVTWSTGGRKIHSQEQGRFHIENTDDSTTLTIKDVQKQDGGLYTLTLRNEFGSDSATVNIHIRSI
chain 3: not shown
chain 4: not shown
On to B2, for which the 50% effective concentration (EC50) in assay [1] came out at 0.6 nM; in assay [2], 7.9 nM.

B3: PL-18 (bispecific antibody)
chain 1: not shown
chain 2: DIVLTQSPASLAVSPGQRATITCRASESVSIHGTHLMHWYQQKPGQPPKLLIYAASKLESGVPARFSGSGSGTDFTLTINPVEAEDTANYYCQQSFEDPLTFGQGTKLEIKRTVASGIPPKIECLPIDISIDEGKCLTVASAFTGEPTPEVTWSTGGRKIHSQEQGRFHIENTDDSTTLTIKDVQKQDGGLYTLTLRNEFGSDSATVNIHIRSI
chain 3: not shown
chain 4: not shown
For the molecule B3, the results for the EC50 in assay [1] and in assay [2] were 1.6 nM and 6.7 nM, respectively.

B4: PL-9 (bispecific antibody)
chain 1: not shown
chain 2: DIVLTQSPASLAVSPGQRATITCRASESVSIHGTHLMHWYQQKPGQPPKLLIYAASKLESGVPARFSGSGSGTDFTLTINPVEAEDTANYYCQQSFEDPLTFGQGTKLEIKGGGGSGIPPKIECLPIDISIDEGKCLTVASAFTGEPTPEVTWSTGGRKIHSQEQGRFHIENTDDSTTLTIKDVQKQDGGLYTLTLRNEFGSDSATVNIHIRSI
chain 3: not shown
chain 4: not shown
On to B4, for which the EC50 came out at 0.6 nM in assay [1] and 5.5 nM in assay [2].

B5: PL-11 (bispecific antibody)
chain 1: not shown
chain 2: DIVLTQSPASLAVSPGQRATITCRASESVSIHGTHLMHWYQQKPGQPPKLLIYAASKLESGVPARFSGSGSGTDFTLTINPVEAEDTANYYCQQSFEDPLTFGQGTKLEIKRTVASGIPPKIECLPIDISIDEGKVLTVASAFTGEPTPEVTWSTGGRKIHSQEQGRFHIENTDDSTTLTIKDVQKQDGGLYTLTLRNEFGSDSATVNIHIRSI
chain 3: not shown
chain 4: not shown
As to B5, the EC50 came out at 0.6 nM in assay [1] and 5.6 nM in assay [2].

B6: PL-7 (bispecific antibody)
chain 1: not shown
chain 2: DIVLTQSPASLAVSPGQRATITCRASESVSIHGTHLMHWYQQKPGQPPKLLIYAASKLESGVPARFSGSGSGTDFTLTINPVEAEDTANYYCQQSFEDPLTFGQGTKLEIKGGGGSGIPPKIECLPIDISIDEGKVLTVASCFTGEPTPEVTWSTGGRKIHSQEQGRFHIENTDDSTTLTIKDVQKQDGGLYTLTLRNEFGSDSATVNIHIRSI
chain 3: not shown
chain 4: not shown
With B6, the EC50 in assay [1] was determined as 0.5 nM; in assay [2], 7.3 nM.

B7: PL-13 (bispecific antibody)
chain 1: not shown
chain 2: DIVLTQSPASLAVSPGQRATITCRASESVSIHGTHLMHWYQQKPGQPPKLLIYAASKLESGVPARFSGSGSGTDFTLTINPVEAEDTANYYCQQSFEDPLTFGQGTKLEIKRTVASGIPPKIECLPIDISIDEGKVLTVASCFTGEPTPEVTWSTGGRKIHSQEQGRFHIENTDDSTTLTIKDVQKQDGGLYTLTLRNEFGSDSATVNIHIRSI
chain 3: not shown
chain 4: not shown
On to B7, for which the EC50 is 0.5 nM in assay [1] and 4.4 nM in assay [2].

B8: PL-8 (bispecific antibody)
chain 1: not shown
chain 2: DIVLTQSPASLAVSPGQRATITCRASESVSIHGTHLMHWYQQKPGQPPKLLIYAASKLESGVPARFSGSGSGTDFTLTINPVEAEDTANYYCQQSFEDPLTFGQGTKLEIKGGGGSGIPPKIECLPIDISIDEGKVLTVASAFTGEPTPEVTWSTGGRKIHSQEQGRFHIENTDDSTTLTIKDVQKQDGGLYTLTLRNEFGSDSATVNIHIRSI
chain 3: not shown
chain 4: not shown
For B8, the results for the EC50 in assay [1] and in assay [2] were 1.4 nM and 14.5 nM, respectively.

B9: PL-10 (bispecific antibody)
chain 1: not shown
chain 2: DIVLTQSPASLAVSPGQRATITCRASESVSIHGTHLMHWYQQKPGQPPKLLIYAASKLESGVPARFSGSGSGTDFTLTINPVEAEDTANYYCQQSFEDPLTFGQGTKLEIKGGGGSGIPPKIECLPIDISIDEGKVLTVASCFTGEPTPEVTWSTGGRKIHSQEQGRFHIENTDDSTTLTIKDVQKQDGGLYTLTLRNEFGSDSATVNIHIRSI
chain 3: not shown
chain 4: not shown
Regarding B9, the figures for the EC50 in assay [1] and in assay [2] were 0.6 nM and 6.9 nM, respectively.

B10: PL-4 (bispecific antibody)
chain 1: not shown
chain 2: DIVLTQSPASLAVSPGQRATITCRASESVSIHGTHLMHWYQQKPGQPPKLLIYAASKLESGVPARFSGSGSGTDFTLTINPVEAEDTANYYCQQSFEDPLTFGQGTKLEIKGGGGSGIPPKIECLPIDISIDEGKVLTVASCFTGEPTPEVTWSTGGRKIHSQEQGRFHIENTDDSTTLTIKDVQKQDGGLYTLTLRNEFGSDSATVNIHIRSI
chain 3: not shown
chain 4: not shown
For B10, the EC50 in assay [1] was found to be 0.7 nM; in assay [2] it was 6.5 nM.

B11: PL-2 (bispecific antibody)
chain 1: not shown
chain 2: DIVLTQSPASLAVSPGQRATITCRASESVSIHGTHLMHWYQQKPGQPPKLLIYAASKLESGVPARFSGSGSGTDFTLTINPVEAEDTANYYCQQSFEDPLTFGQGTKLEIKGGGGSGIPPKIECLPIDISIDEGKVLTVASAFTGEPTPEVTWSTGGRKIHSQEQGRFHIENTDDSTTLTIKDVQKQDGGLYTLTLRNEFGSDSATVNIHIRSI
chain 3: not shown
chain 4: not shown
Turning to B11, the EC50 is 0.5 nM in assay [1] and 8 nM in assay [2].

B12: PL-5 (bispecific antibody)
chain 1: not shown
chain 2: DIVLTQSPASLAVSPGQRATITCRASESVSIHGTHLMHWYQQKPGQPPKLLIYAASKLESGVPARFSGSGSGTDFTLTINPVEAEDTANYYCQQSFEDPLTFGQGTKLEIKGGGGSGIPPKIECLPIDISIDEGKVLTVASAFTGEPTPEVTWSTGGRKIHSQEQGRFHIENTDDSTTLTIKDVQKQDGGLYTLTLRNEFGSDSATVNIHIRSI
chain 3: not shown
chain 4: not shown
With B12, the EC50 in assay [1] came to 0.7 nM; in assay [2], 6.7 nM.

B13: PL-19 (bispecific antibody)
chain 1: not shown
chain 2: DIVLTQSPASLAVSPGQRATITCRASESVSIHGTHLMHWYQQKPGQPPKLLIYAASKLESGVPARFSGSGSGTDFTLTINPVEAEDTANYYCQQSFEDPLTFGQGTKLEIKRTVASGIPPKIECLPIDISIDEGKVLTVASCFTGEPTPEVTWSTGGRKIHSQEQGRFHIENTDDSTTLTIKDVQKQDGGLYTLTLRNEFGSDSATVNIHIRSI
chain 3: not shown
chain 4: not shown
Consider B13, for which the EC50 in assay [1] amounted to 1.6 nM; in assay [2], 6.5 nM.

B14: PL-15 (bispecific antibody)
chain 1: not shown
chain 2: DIVLTQSPASLAVSPGQRATITCRASESVSIHGTHLMHWYQQKPGQPPKLLIYAASKLESGVPARFSGSGSGTDFTLTINPVEAEDTANYYCQQSFEDPLTFGQGTKLEIKRTVASGIPPKIECLPIDISIDEGKCLTVASAFTGEPTPEVTWSTGGRKIHSQEQGRFHIENTDDSTTLTIKDVQKQDGGLYTLTLRNEFGSDSATVNIHIRSI
chain 3: not shown
chain 4: not shown
In the case of B14, the EC50 in assay [1] amounted to 1.4 nM; in assay [2], 3.2 nM.

B15: PL-6 (bispecific antibody)
chain 1: not shown
chain 2: DIVLTQSPASLAVSPGQRATITCRASESVSIHGTHLMHWYQQKPGQPPKLLIYAASKLESGVPARFSGSGSGTDFTLTINPVEAEDTANYYCQQSFEDPLTFGQGTKLEIKGGGGSGIPPKIECLPIDISIDEGKCLTVASAFTGEPTPEVTWSTGGRKIHSQEQGRFHIENTDDSTTLTIKDVQKQDGGLYTLTLRNEFGSDSATVNIHIRSI
chain 3: not shown
chain 4: not shown
As for B15, the figures for the EC50 in assay [1] and in assay [2] were 0.8 nM and 5.3 nM, respectively.

B16: PL-12 (bispecific antibody)
chain 1: not shown
chain 2: DIVLTQSPASLAVSPGQRATITCRASESVSIHGTHLMHWYQQKPGQPPKLLIYAASKLESGVPARFSGSGSGTDFTLTINPVEAEDTANYYCQQSFEDPLTFGQGTKLEIKRTVASGIPPKIECLPIDISIDEGKCLTVASAFTGEPTPEVTWSTGGRKIHSQEQGRFHIENTDDSTTLTIKDVQKQDGGLYTLTLRNEFGSDSATVNIHIRSI
chain 3: not shown
chain 4: not shown
With B16, the EC50 in assay [1] was 0.5 nM; in assay [2], 8 nM.

B17: PL-14 (bispecific antibody)
chain 1: not shown
chain 2: DIVLTQSPASLAVSPGQRATITCRASESVSIHGTHLMHWYQQKPGQPPKLLIYAASKLESGVPARFSGSGSGTDFTLTINPVEAEDTANYYCQQSFEDPLTFGQGTKLEIKRTVASGIPPKIECLPIDISIDEGKVLTVASAFTGEPTPEVTWSTGGRKIHSQEQGRFHIENTDDSTTLTIKDVQKQDGGLYTLTLRNEFGSDSATVNIHIRSI
chain 3: not shown
chain 4: not shown
On to B17, for which the values for the EC50 in assay [1] and in assay [2] were 1.3 nM and 6 nM, respectively.

B18: PL-17 (bispecific antibody)
chain 1: not shown
chain 2: DIVLTQSPASLAVSPGQRATITCRASESVSIHGTHLMHWYQQKPGQPPKLLIYAASKLESGVPARFSGSGSGTDFTLTINPVEAEDTANYYCQQSFEDPLTFGQGTKLEIKRTVASGIPPKIECLPIDISIDEGKVLTVASAFTGEPTPEVTWSTGGRKIHSQEQGRFHIENTDDSTTLTIKDVQKQDGGLYTLTLRNEFGSDSATVNIHIRSI
chain 3: not shown
chain 4: not shown
As for B18, the EC50 in assay [1] is 1.4 nM; in assay [2] it was 6.2 nM.

B19: C1#-CHI (antibody, human IgG1, kappa, V domains shown)
VH: QVQLQQSGAELVRPGSSVKISCKASGYTFSTSWMNWVKQRPGQGLEWIGQIYPGDGYTNYNGKFRGKATLTADKSSSTAYMQLSSLTSEDSAVYFCAGDYEALWGQGTTLTVSS
VL: DVVMTQTPLSLPVSLGDQASISCRSSQSLVHSNGNTYFHWYLQRPGQSPKLLIYEVSNRFSGVPDRFSGSGSGTDFTLKISRVEAEDLGVYFCSQSTHVPFTFGSGTKLEIKR
notes: chimeric: murine variable regions fused to human constant regions; also called C1#-CH1
In the case of B19, the “IC50, inhibition of cAMP production in SK-N-MC cells” value in assay [3] came out at 7.96 nM. Also, the EC50 in assay [4] came to 1.81 nM; in assay [5], 1.36 nM.
